Laboratory results from patent publication US20030103975A1 (published 2003).

Target: human fibronectin (BD Biosciences) (human, UniProt P02751-8 32-2296, limits assumed)
Experiment: solid-phase saturation binding ELISA: coated fibronectin at varying concentrations, soluble integrin at 5 ng/µl, detected with LM609
Method: FIGS. 3A-D. Wells of a 96-well plate were coated with varying concentrations of G⁹¹⁹⁻¹²⁰⁷, G⁹¹⁹⁻¹⁰¹⁸ and G¹⁰¹⁶⁻¹²⁰⁷ (A) or fibronectin (B). αvβ3 integrin (5 ng/μl) was then added to, allowed to bind for 1 h at 37° C., and binding evaluated by ELISA using LM609 followed by a secondary antibody conjugated to alkaline phosphatase. […] is a competition binding curve. Soluble αvβ3 (5 ng/μl) was added to wells coated with G⁹¹⁹⁻¹²⁰⁷ in the presence of increasing concentrations of fibronectin at 37° C. […] In all studies, absorbance was measured at 405 nm. Each of the graphs is representative of at least three separate experiments.
ELISA Assays. Wells of 96-well non-tissue culture treated plates were coated with protein at varying concentrations for 18 h at 4° C. Each well was rinsed three times and blocked with 1% BSA in PBS for 1 h at 37° C. Soluble integrin heterodimers were diluted in binding buffer (25 mM Tris buffer, […], 1 mM MgCl2, 0.5 mM MnCl2, 0.05% BSA, pH 7.5) and added to each well for a final concentration of 5 ng/μl. After incubating for 90 min at 37° C. wells were rinsed three times in binding buffer and appropriate mouse monoclonal anti-integrin antibody was added for 1 h at 37° C. […] Absorbance at 405 nm was measured with a Vmax plate reader (Molecular Devices, Menlo Park, Calif.). Nonspecific binding was determined by the addition of 10 mM EDTA to binding buffer. […]

Sequence of human fibronectin (BD Biosciences) (P02751 other isoform, or with tags, fused parts or gaps limits assumed): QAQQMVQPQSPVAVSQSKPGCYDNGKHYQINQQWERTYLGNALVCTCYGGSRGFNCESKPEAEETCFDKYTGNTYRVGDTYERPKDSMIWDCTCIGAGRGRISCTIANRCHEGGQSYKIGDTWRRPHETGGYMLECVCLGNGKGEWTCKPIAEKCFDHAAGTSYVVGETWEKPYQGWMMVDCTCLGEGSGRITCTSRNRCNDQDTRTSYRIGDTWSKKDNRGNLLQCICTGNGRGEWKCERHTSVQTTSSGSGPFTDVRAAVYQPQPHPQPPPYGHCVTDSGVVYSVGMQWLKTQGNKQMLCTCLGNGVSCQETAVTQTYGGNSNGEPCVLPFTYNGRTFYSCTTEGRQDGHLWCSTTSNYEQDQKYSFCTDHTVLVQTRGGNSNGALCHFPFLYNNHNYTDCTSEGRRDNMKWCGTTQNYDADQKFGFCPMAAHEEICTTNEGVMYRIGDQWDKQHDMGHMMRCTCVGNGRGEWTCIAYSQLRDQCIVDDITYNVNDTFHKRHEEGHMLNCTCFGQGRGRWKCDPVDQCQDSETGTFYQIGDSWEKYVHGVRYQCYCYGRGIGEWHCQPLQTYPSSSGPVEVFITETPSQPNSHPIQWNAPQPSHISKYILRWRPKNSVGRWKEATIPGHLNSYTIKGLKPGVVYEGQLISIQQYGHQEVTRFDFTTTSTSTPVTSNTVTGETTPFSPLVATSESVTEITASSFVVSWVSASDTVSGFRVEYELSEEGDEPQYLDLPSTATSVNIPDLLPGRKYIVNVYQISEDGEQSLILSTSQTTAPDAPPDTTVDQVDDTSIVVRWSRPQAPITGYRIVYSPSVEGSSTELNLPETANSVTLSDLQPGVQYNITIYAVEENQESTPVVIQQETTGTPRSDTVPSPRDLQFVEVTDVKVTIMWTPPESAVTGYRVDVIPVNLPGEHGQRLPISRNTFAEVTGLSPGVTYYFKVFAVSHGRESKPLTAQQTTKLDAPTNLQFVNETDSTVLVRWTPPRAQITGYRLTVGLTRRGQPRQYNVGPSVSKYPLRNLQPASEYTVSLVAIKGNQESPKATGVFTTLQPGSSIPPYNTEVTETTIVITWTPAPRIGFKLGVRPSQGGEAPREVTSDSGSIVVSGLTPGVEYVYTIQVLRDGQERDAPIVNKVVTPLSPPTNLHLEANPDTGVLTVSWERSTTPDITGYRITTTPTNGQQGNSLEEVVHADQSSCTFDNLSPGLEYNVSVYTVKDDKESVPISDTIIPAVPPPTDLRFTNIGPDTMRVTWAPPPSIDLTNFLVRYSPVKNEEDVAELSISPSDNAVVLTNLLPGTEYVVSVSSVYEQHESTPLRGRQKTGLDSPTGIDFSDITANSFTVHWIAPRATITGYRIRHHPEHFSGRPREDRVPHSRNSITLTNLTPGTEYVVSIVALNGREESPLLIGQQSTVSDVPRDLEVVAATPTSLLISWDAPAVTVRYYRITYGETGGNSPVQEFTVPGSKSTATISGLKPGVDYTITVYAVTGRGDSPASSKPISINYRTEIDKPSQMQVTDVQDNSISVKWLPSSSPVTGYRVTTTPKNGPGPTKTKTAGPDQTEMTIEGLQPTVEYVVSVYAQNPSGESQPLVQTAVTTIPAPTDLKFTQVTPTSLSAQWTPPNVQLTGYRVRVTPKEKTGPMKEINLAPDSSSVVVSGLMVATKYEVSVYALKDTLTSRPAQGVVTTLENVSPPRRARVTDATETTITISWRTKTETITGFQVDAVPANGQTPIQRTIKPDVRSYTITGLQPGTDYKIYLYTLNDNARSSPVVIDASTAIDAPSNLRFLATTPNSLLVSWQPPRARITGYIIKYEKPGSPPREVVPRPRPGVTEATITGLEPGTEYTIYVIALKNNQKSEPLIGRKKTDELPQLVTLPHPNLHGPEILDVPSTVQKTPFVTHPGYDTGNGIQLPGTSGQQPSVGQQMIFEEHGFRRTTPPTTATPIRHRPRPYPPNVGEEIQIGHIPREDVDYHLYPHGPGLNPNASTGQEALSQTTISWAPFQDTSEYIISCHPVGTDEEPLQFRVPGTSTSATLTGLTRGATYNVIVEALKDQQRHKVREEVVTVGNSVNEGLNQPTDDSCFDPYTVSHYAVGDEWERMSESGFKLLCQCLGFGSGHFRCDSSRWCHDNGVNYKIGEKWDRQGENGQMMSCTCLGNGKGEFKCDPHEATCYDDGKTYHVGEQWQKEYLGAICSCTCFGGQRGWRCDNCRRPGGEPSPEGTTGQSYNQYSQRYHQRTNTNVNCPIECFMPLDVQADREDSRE

B1: soluble αvβ3 integrin heterodimer (Chemicon International) (receptor)
chain 1: FNLDVDSPAEYSGPEGSYFGFAVDFFVPSASSRMFLLVGAPKANTTQPGIVEGGQVLKCDWSSTRRCQPIEFDATGNRDYAKDDPLEFKSHQWFGASVRSKQDKILACAPLYHWRTEMKQEREPVGTCFLQDGTKTVEYAPCRSQDIDADGQGFCQGGFSIDFTKADRVLLGGPGSFYWQGQLISDQVAEIVSKYDPNVYSIKYNNQLATRTAQAIFDDSYLGYSVAVGDFNGDGIDDFVSGVPRAARTLGMVYIYDGKNMSSLYNFTGEQMAAYFGFSVAATDINGDDYADVFIGAPLFMDRGSDGKLQEVGQVSVSLQRASGDFQTTKLNGFEVFARFGSAIAPLGDLDQDGFNDIAIAAPYGGEDKKGIVYIFNGRSTGLNAVPSQILEGQWAARSMPPSFGYSMKGATDIDKNGYPDLIVGAFGVDRAILYRARPVITVNAGLEVYPSILNQDNKTCSLPGTALKVSCFNVRFCLKADGKGVLPRKLNFQVELLLDKLKQKGAIRRALFLYSRSPSHSKNMTISRGGLMQCEELIAYLRDESEFRDKLTPITIFMEYRLDYRTAADTTGLQPILNQFTPANISRQAHILLDCGEDNVCKPKLEVSVDSDQKKIYIGDDNPLTLIVKAQNQGEGAYEAELIVSIPLQADFIGVVRNNEALARLSCAFKTENQTRQVVCDLGNPMKAGTQLLAGLRFSVHQQSEMDTSVKFDLQIQSSNLFDKVSPVVSHKVDLAVLAAVEIRGVSSPDHVFLPIPNWEHKENPETEEDVGPVVQHIYELRNNGPSSFSKAMLHLQWPYKYNNNTLLYILHYDIDGPMNCTSDMEINPLRIKISSLQTTEKNDTVAGQGERDHLITKRDLALSEGDIHTLGCGVAQCLKIVCQVGRLDRGKSAILYVKSLLWTETFMNKENQNHSYSLKSSASFNVIEFPYKNLPIEDITNSTLVTTNVTWGIQPAPMPV
chain 2: GPNICTTRGVSSCQQCLAVSPMCAWCSDEALPLGSPRCDLKENLLKDNCAPESIEFPVSEARVLEDRPLSDKGSGDSSQVTQVSPQRIALRLRPDDSKNFSIQVRQVEDYPVDIYYLMDLSYSMKDDLWSIQNLGTKLATQMRKLTSNLRIGFGAFVDKPVSPYMYISPPEALENPCYDMKTTCLPMFGYKHVLTLTDQVTRFNEEVKKQSVSRNRDAPEGGFDAIMQATVCDEKIGWRNDASHLLVFTTDAKTHIALDGRLAGIVQPNDGQCHVGSDNHYSASTTMDYPSLGLMTEKLSQKNINLIFAVTENVVNLYQNYSELIPGTTVGVLSMDSSNVLQLIVDAYGKIRSKVELEVRDLPEELSLSFNATCLNNEVIPGLKSCMGLKIGDTVSFSIEAKVRGCPQEKEKSFTIKPVGFKDSLIVQVTFDCDCACQAQAEPNSHRCNNGNGTFECGVCRCGPGWLGSQCECSEEDYRPSQQDECSPREGQPVCSQRGECLCGQCVCHSSDFGKITGKYCECDDFSCVRYKGEMCSGHGQCSCGDCLCDSDWTGYYCNCTTRTDTCMSSNGLLCSGRGKCECGSCVCIQPGSYGDTCEKCPTCPDACTFKKECVECKKFDRGALHDENTCNRYCRDEIESVKELKDTGKDAVNCTYKNEDDCVVRFQYYEDSSGKSILYVVEEPECPKGPD
notes: Bought
In the case of B1, the Kd is reported as 15 nM.
